Data set [1] is described as follows: Toxicity in SD rat, single intravenous infusion. Type of data set: in vivo. As for the experimental part: SPF-level SD rats (the certificate No. is SCXK (jing)2012-0001) purchased from Beijing Vital River Laboratories Animal Technology Co, Ltd. were randomly divided into 7 groups according to gender, in which there were 10 rats in a group with half male and half female. These 7 groups included physiological saline negative control group, 0.48 mg/kg MMAE control group, 40 mg/kg RC48 naked antibody control group and series of RC48-vc-MMAE dose groups, in which the rats were dosed via tail vein infusion, and the experimental observation period was 21 days. The body weights were weighted at D1 (pre-dosing), D8, D15 and D22. After the observation period, the animals were euthanized and performed a general pathological anatomical observation, and the abnormal tissues or organs observed by the general anatomical observation were subjected to a histological examination.

Data set [2] has as its system NCI-N87 human gastric cancer. Description: NCI-N87 human gastric cancer nude mouse subcutaneous transplantation tumor model. Type of data set: in vivo. As to conditions: 200 mg/kg, dosing once per week, for 21 days. The protocol:
[Worded in the source for another cell line; this cell line is reported under the same test.] (§1) SPF-level BALB/c nude mice were inoculated subcutaneously with a certain amount of BT-474/L1.9 tumor cells, and after the tumor growing to 100-200 mm3, the animals were randomly grouped. […] The tumor volume was measured 2 times a week. […] The data were recorded. The tumor volume and the tumor-inhibition rate of each tumor-bearing mouse were calculated at different observation time points.

The subject of data set [3] is BT-474/L1.9 human breast cancer. Description: Herceptin- and Lapatinib-resistant BT-474/L1.9 nude mouse subcutaneous transplantation tumor model. Type of data set: in vivo. As for the experimental part: as §1
For data set [4], the system named is chronic non-Hodgkin's lymphocytoma (NHL). Conditions: cited from earlier work.
Data set [5] concerns recurrent or refractory Hodgkin's lymphoma. As to conditions: cited from earlier work.
Data set [6] relates to HER2+ cells SK-BR-3, BT474. Description: Flow cytometry binding with HER2 positive breast cancer cells. The format is cell-based, human. Conditions: 6 μg antibody, SK-BR-3 and BT474. The protocol:
(§2) After 2 times of thoroughly washing with 4 ml cold PBS, the antibodies binding with the cell surface were detected by R-PE-coupled goat anti-human IgG Fc specific second antibody (15 μl, 25 μg/mL), and then analyzed by flow cytometer (BD FACSCalibur).

In data set [7] the target is T1, HER2 on BT474 cell surface (Homo sapiens, UniProt P04626).
T1 construct: HER2 which was endogenously expressed in human breast cancer cells; endogenous in cells; host or cells: BT474 human breast cancer cells
The data set is described as follows: Flow cytometry binding curve with HER2 on BT474 cell surface. Conditions: BT474 cells, antibody titration, read-out: Binding affinity Kd. The protocol:
as §2

A further data set deals with HER2 (Homo sapiens, UniProt P04626). The data set is described as follows: Antigen binding specificity ELISA. Conditions: 20 ng antigen per well. The protocol:
(§3) HER2-ECD as described above was used as the antigen for immunizing the mouse and monoclonal antibody generation. Immunization, hybridoma cells fusion and primary screen were conducted according to standard procedures (reference: WHO Technical Report Series, No. 822, 1992 Annex 3). Four Balb/c mice (commercially obtained from Shanghai Slac Laboratory Animal Co. Ltd.) were immunized with equal volume of well-blended 0.25 ml HER2-ECD protein (50-100 μg) and 0.25 ml Freund's complete adjuvant (Difco Lab). Two weeks later, the second injection was carried out with Freund's incomplete adjuvant (Difco Lab) in which the amount of antigen was 25-50 μg/0.5 ml/mouse. Three weeks later, the third injection was carried out in which the amount was the same with that in the second injection. Ten days after the third injection the blood was drawn. The mice serum were detected by enzyme-linked immunosorbent assay (ELISA), and the spleens of the two mice with highest anti-HER2 antibody titer in serum were taken, which were then fused with the myeloma cell P3X63Ag8 (ATCC CRL-1580). The fused cells were diluted onto ten 96-well plates, and the preliminary screen was carried out through ELISA method depending on the binding capacity with HER2-ECD. In a classical ELISA assay, the Nunc Maxisord 96-well plate was coated with HER2-ECD (0.2-1 μg/ml), and then incubated with gradient diluted mouse serum or hybridoma supernatant (100 μL). Murine-derived anti-HER2 antibody was detected by the goat F(ab′)2 anti-murine IgG Fc specific second antibody coupled with horse radish peroxidase (Invitrogen Inc.).

The target in a further data set is EGFR (Homo sapiens, UniProt P00533). The data set is described as follows: Antigen binding specificity ELISA. Conditions: 20 ng antigen per well. As for the experimental part: [Worded in the source for another target; used here, by the source, with some conditions changed.] as §3
The target in another data set is HER3 (Homo sapiens, UniProt P21860). Description: Antigen binding specificity ELISA. As to conditions: 20 ng antigen per well. As for the experimental part: [Worded in the source for another target; used here, by the source, with some conditions changed.] as §3
In the next data set the target is HER4 (Homo sapiens, UniProt Q15303). The data set is described as follows: Antigen binding specificity ELISA. Conditions: 20 ng antigen per well. The protocol:
[Worded in the source for another target; used here, by the source, with some conditions changed.] as §3

Data set [8] has as its system BT474 human breast cancer tumor. Type of data set: in vivo. As to conditions: 10 mg/kg, three administrations, 37 days after dosing. As for the experimental part:
Five millions of BT474 cells were suspended in PBS, and inoculated to the armpit of BALB/c nude mouse (provided by Shanghai Slac Laboratory Animal Co. Ltd., with the certificate No. 2007000540582 and license No. SCXK(hu)2012-0002). After the tumor was formed, the tumor tissue which grew vigorously was taken and cut into about 1.5 mm^3, and inoculated subcutaneously to the right-side armpit of nude mouse under sterile conditions. The diameter of the nude mouse transplantation tumor was measured by vernier caliper. The animals were grouped randomly until the tumor grew up to 100˜300 mm^3.

In the next data set the target is T2, HER2-ECD (Homo sapiens, UniProt P04626).
T2 construct: made in house; host or cells: HEK293
Description: ELISA HER2-ECD binding affinity constant of antibodies. Conditions: ELISA on coated HER2-ECD; average of 3 independent assays. As for the experimental part:
as §3, with “The fused cells were diluted onto ten 96-well plates, and the preliminary screen was carried out through ELISA method depending on the binding capacity with HER2-ECD. In a classical ELISA assay, the Nunc Maxisord 96-well plate was coated with HER2-ECD (0.2-1 μg/ml), and then incubated with gradient diluted mouse serum or hybridoma supernatant (100 μL).” left out

The test system of data set [9] is BT474 human breast cancer transplantation tumor. The data set is described as follows: Tumor inhibition of RC48, BT474 human breast cancer transplantation tumor model. The format is in vivo, nude mouse. Conditions: 10 mg/kg, administered three times. The source says:
Human breast cancer BT474 nude mouse transplantation tumor model was established by inoculating BT474 cells into nude mouse subcutaneously. After growing continuously in vivo for 3 generations, the tumor tissue which grew vigorously was taken and cut into about 1.5 mm3, and inoculated subcutaneously to right-side armpit of nude mouse (provided by Shanghai Slac Laboratory Animal Co. Ltd., with the certificate No. 2007000540582 and license No. SCXK(hu)2012-0002) under sterile conditions. The diameter of the nude mouse transplantation tumor was measured by vernier caliper. The animals were grouped randomly until the tumor grew up to 100˜300 mm3.

The next data set has as its system MDA-MBA468. Description: Flow cytometry binding with HER2 negative cells. Type of data set: cell-based, human. Conditions: 6 μg antibody. The protocol:
as §2

“Also recorded” adds a separate entry of the source. Square brackets hold non-standard residues; d marks the D form. Peptide text beside a SMILES is read from it. * marks the point of attachment. Dolaproine = CO[C@@H]([C@@H]1CCCN1)[C@@H](C)C(=O)O; Dil = CC[C@H](C)[C@H](NC)[C@@H](CC(=O)O)OC; X1 = C[C@@H](N*)[C@@H](O)c1ccccc1; NMeV = CN[C@H](C(=O)O)C(C)C

Chain of HER4 (Q15303 26-1308, species assumed): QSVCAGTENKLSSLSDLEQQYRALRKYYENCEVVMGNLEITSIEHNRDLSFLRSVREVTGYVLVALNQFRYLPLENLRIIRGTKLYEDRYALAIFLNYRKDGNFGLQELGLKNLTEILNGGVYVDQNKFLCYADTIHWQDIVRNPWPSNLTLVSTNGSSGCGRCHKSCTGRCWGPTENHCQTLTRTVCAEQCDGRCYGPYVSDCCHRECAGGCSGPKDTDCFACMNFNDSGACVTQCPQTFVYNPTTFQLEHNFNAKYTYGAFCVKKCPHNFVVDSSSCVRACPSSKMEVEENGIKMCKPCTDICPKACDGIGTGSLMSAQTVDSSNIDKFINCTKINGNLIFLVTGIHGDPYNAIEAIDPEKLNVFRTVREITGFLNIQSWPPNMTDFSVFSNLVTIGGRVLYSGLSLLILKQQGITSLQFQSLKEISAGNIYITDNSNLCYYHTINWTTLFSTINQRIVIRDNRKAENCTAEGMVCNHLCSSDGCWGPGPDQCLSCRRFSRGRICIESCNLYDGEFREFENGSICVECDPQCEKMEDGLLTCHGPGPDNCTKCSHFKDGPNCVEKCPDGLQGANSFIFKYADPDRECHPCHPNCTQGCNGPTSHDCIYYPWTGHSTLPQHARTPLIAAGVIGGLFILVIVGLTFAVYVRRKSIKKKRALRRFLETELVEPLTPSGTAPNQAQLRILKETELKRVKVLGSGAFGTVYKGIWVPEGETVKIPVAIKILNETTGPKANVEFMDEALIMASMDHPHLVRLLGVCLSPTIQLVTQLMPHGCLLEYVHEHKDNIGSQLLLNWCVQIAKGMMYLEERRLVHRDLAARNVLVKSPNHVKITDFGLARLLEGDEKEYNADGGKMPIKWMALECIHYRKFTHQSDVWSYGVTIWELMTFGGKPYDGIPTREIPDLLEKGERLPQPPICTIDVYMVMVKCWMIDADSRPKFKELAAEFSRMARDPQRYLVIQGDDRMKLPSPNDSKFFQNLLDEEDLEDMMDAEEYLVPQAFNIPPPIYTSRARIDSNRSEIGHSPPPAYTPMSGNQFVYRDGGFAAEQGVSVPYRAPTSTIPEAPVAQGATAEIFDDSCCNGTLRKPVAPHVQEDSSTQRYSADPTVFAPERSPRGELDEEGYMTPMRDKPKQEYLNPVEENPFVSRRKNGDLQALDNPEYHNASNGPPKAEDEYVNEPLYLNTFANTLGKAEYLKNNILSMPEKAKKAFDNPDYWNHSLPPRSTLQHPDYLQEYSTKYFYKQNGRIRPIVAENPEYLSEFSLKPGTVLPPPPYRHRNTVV

Regarding `CC[C@H](C)[C@@H]([C@@H](CC(=O)N1CCC[C@H]1[C@H](OC)[C@@H](C)C(=O)N[C@H](C)[C@@H](O)c1ccccc1)OC)N(C)C(=O)[C@@H](NC(=O)[C@@H](NC)C(C)C)C(C)C` [MMAE, Monomethyl auristatin E, reference compound] (H-[NMeV]V[Dil][Dolaproine]-X1), the “animals found dead during the experiment” value in data set [1] (0.48 mg/kg MMAE control group, single tail vein infusion, 21 days) is 9/10.
In the case of `CS(=O)(=O)CCNCc1ccc(-c2ccc3ncnc(Nc4ccc(OCc5cccc(F)c5)c(Cl)c4)c3c2)o1` [Lapatinib], the tumor-inhibition rate in [2] came to 78%; in data set [3] (200 mg/kg, dosing everyday) it was 45%.
With “Rituxan: monoclonal antibody drug against lymphocytoma such as NHL”, the total response rate in data set [4] (Phase II clinical study, NHL, used alone) is reported as 6%. The effective rate entry in data set [4] (in combination with standard chemotherapy, chronic lymphocytoma) is listed as “up to 90%”.
T-DM1 registered a tumor-inhibition rate in data set [3] (5 mg/kg, once per week, totally 2 times) of 58%.
Take brentuximab vedotin: the “patients achieving partial response” value in data set [5] (Phase II, 102 patients) was 40%. In addition, the overall response rate in data set [5] (median treatment course 6.7 months) is reported as 73%. Also, the complete response rate in data set [5] (median treatment course 20.5 months) is reported as 34%.

B1: RC48: humanized anti-HER2 antibody RC48, derived from mRC48 antibody by humanized engineering; human IgG1κ (antibody, chains of the INN, looked up, V domains shown)
VH: EVQLVQSGAEVKKPGATVKISCKVSGYTFTDYYIHWVQQAPGKGLEWMGRVNPDHGDSYYNQKFKDKATITADKSTDTAYMELSSLRSEDTAVYFCARNYLFDHWGQGTLVTVSS
VL: DIQMTQSPSSVSASVGDRVTITCKASQDVGTAVAWYQQKPGKAPKLLIYWASIRHTGVPSRFSGSGSGTDFTLTISSLQPEDFATYYCHQFATYTFGGGTKVEIK
Regarding B1, in data set [6], the “binding with HER2 positive cells” value was “strong binding; also recorded: higher binding affinity”. The values for the Kd (in data set [7]; with HER2-ECD) were 4 nM and 0.044 nM, respectively. Also, the toxicity response symptom entry in data set [1] (40 mg/kg, single intravenous infusion) was “no evident toxicity response symptom”. Also, the “maximal tolerant dose of rat” value in [1] (single intravenous infusion) was ≥ 40 mg/kg. In addition, in the data set with HER2, the “binding capacity with HER2” value is recorded as “strong binding capacity; also recorded: only shows specific binding affinity with HER2”. Also, the “binding capacity with EGFR” value with EGFR was “nearly had no binding capacity; also recorded: not with EGFR, HER3 and HER4”. For the same molecule, the “binding capacity with HER3” value in the data set with HER3 is “nearly had no binding capacity; also recorded: not with EGFR, HER3 and HER4”. Moreover, the “binding capacity with HER4” value in the data set with HER4 is “nearly had no binding capacity; also recorded: not with EGFR, HER3 and HER4”. Further, the “tumor volume as % of the control group” value in data set [8] worked out at 83%. Further, in data set [9], the “tumor-inhibitory effect on BT474 tumors” value was “inhibited; also recorded: significantly better tumor-inhibitory effect”. Moreover, the “binding with HER2 negative cells” value in the data set on MDA-MBA468 was “no binding”.
